Among the data in publication PMC9876794 (2022) are Kd and binding score values, retold here.

One may read the Kd as the constant that tells how readily two partners part at equilibrium.

Like-named read-outs stand apart in the source and are kept apart here.

For experiment [1], the target named is T1, SARS-CoV-2 spike RBD (WT) (Severe acute respiratory syndrome …, UniProt P0DTC2). As to the kind of experiment: BLI. A general note: Biolayer interferometry detects binding as a change in optical thickness at a sensor tip.
Experiment [2] deals with T1, SARS-CoV-2 spike RBD (WT). As to the kind of experiment: ELISA. Further details: unit not given here.
Experiment [3] has as its target T1, SARS-CoV-2 spike RBD (WT). As to the kind of experiment: BLI. This is another data set of the same source.

B1: C2719 (antibody, V domains shown)
VH: EVQLVESGGGLIQPGGSLRLSCAASGFTVSSNYMSWVRQAPGKGLEWVSVIYSGGSTYYADSVKGRFTISRDNSKNTLYLQMNSLRAEDTAVYYCARDLGPYGMDVWGQGTTVTVSS
VL: DIQLTQSPSFLSASVGDRVTITCRASQGISSYLAWYQQKPGKAPKLLIYAASTLQSGVPSRFSGSGSGTEFTLTISSLQPEDFATYYCQQLNSYPPEIGQGTRLEIK
For the molecule B1, in experiment [1], the dissociation constant (Kd) worked out at 127 nM. Moreover, the binding score in experiment [2] was 59.3.

B2: C2727 (antibody, V domains shown)
VH: EVQLVESGGGLIQPGGSLRLSCAASGFTVSSNYMSWVRQAPGKGLEWVSVIYSGGSTYYADSVKGRFTISRDNSKNTLYLQMNSLRAEDTAVYYCAREGPQKTDWGQGTLVTVSS
VL: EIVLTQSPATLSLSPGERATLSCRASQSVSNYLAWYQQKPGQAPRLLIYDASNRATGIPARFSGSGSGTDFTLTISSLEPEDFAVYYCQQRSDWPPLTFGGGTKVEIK
In experiment [1], B2 showed a Kd of 99.6 nM. This molecule yielded a binding score in experiment [2] of 20.

B3: A09 (antibody, V domains shown)
VH: QVQLQQPGAELVKPGASVKVSCKASGYTFTSYWMHWVKQRPGQGLEWIGRIHPSDSDTNYNQKFKGKATLTVDKSSSTAYMQLSSLTSEDSAVYSCARGMDYWGQGTSVTVSS
VL: DVVLTQTPLSLPVNIGDQASISCKSTKSLLNSVGFTYLDWYLQKPGQSPQLLIYLVSNRFSGVPDRFSGSGSGTDFTLKISRVEAEDLGVYYCFQSNYLPYTFGGGTKLEIK
In experiment [3], B3 returned an equilibrium dissociation constant (Kd) of 30.2 nM.

B4: C2724 (antibody, V domains shown)
VH: not shown
VL: EIVLTQSPATLSLSPGERATLSCRASQSVSSYLAWYQQKPGQAPRLLIYDASNRATGIPARFSGSGSGTDFTLTISSLEPEDFAVYYCQQRSNCPLTFGGGTKVEIK
B4 gave a Kd in experiment [1] of 174 nM. The molecule also gave a binding score in experiment [2] of 604.

B5: B27 (antibody, V domains shown)
VH: EVKLEESGGGLVQPGGSMKLSCAASGFTFSDAWMDWVRQSPEKGLEWVAEIRNKANNHATYYAESVKGRFTISRDDSKSSVYLQMNSLRAEDTGIYYCTNYKYYAMDYWGQGTSVTVSS
VL: QIVLTQSPAIMSASPGEKVTMTCSASSSVSYMYWYQQKPGSSPRLLIYDTSNLASGVPVRFSGSGSGTSYSLTISRMEAEDAATYYCQQWSSYPLTFGAGTKLELK
On to B5, for which the Kd in experiment [3] was 120 nM.

B6: D064 (antibody, V domains shown)
VH: EVQLVQSGAEVKKPGESLKISCKGSGYSFTSYWIGWVRQMPGKGLEWMGIIYPGDSDTRYSPSFQGQVTISADKSISTAYLQWSSLKASDTAMYYCASHAGGYDFDYYYMDVWGKGTTVTVSS
VL: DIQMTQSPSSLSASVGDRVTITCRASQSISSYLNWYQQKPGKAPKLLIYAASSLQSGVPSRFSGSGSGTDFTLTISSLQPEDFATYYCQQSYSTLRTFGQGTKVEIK
In turn, B6 showed a Kd in experiment [1] of 344 nM. The molecule also registered a binding score in experiment [2] of 1230.

B7: C2699 (antibody, V domains shown)
VH: QLQLQESGPGLVKPSETLSLTCTVSRGSISSSSYYWGWIRQPPGKGLEWIGSIYYSGNTYYNPSLKSRVTISVDTSNNQFFLKLSSVTAADTAVYYCARRPNSGWGYWYFDLWGRGTLVTVSS
VL: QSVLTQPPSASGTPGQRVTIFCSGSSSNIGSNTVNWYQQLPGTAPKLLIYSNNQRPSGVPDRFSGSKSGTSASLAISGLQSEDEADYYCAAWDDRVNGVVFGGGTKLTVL
In the case of B7, in experiment [1], binding was put at a Kd of 74 nM. This molecule returned a binding score in experiment [2] of 334.

B8: D147 (antibody, V domains shown)
VH: QVQLVESGGGVVQPGRSLRLSCAASGFTFSSYGMYWVRQAPGKGLEWVAVISYDGSNKYYADSVKGRFTISRDNSKNTLYLQMNSLRAEDTAVYYCAKGGGEYCSGGNCYSSYFDYWGQGTLVTVSS
VL: not shown
For B8, in experiment [1], binding was characterised by a dissociation constant (Kd) of 94.2 nM. For the same molecule, the binding score in experiment [2] was found to be 7.89.

B9: D046 (antibody, V domains shown)
VH: EVQLVESGGGLVQPGGSLRLSCAASGFTFSSYWMHWVRQAPGKGLVWVSRINSDGSSTSYADSVKGRFTISRDNAKNTLYLQMNSLRAEDTAVYYCARGVPHDYGDYESVILAGYYYYYYGMDVWGQGTTVTVSS
VL: not shown
On to B9, for which the Kd in experiment [1] turned out to be 42.4 nM. The molecule also yielded a binding score in experiment [2] of 6.02.

B10: A47 (antibody, V domains shown)
VH: HVQLQQPGAELVKPGASVKVSCKASGYTFTSFWMHWVKQRPGQGLEWIGGIHPSDSDTNYNQKFKGKATLTVNKSSSTAYMQLSSLTSEDSAVYYCAIGDECANWGQGTLVTVSA
VL: DIVLTQSPASLAVSLGQRATISCRASKSVSTSGYSYMHWYQQKPGQPPKLLIYLASNLESGVPARFSGSGSGTDFTLNIHPVEEEDAATYYCHHSRELPFTFGSGTKLEIK
On to B10, for which the Kd in experiment [3] is 142 nM.
